One experiment deals with Mice dendritic cells. Description: DCs maturation and differentiation, activation markers by FACS. It is filed as cell-based. The note with it: compared to the excipient or isotype control; FIG. 16. As for the experimental part: FIG. 1. Effect of the anti-CMKLR1 variants 1G1, 2G1, 3G1 and 4G1 chimeric antibodies on the DCs maturation and differentiation. Mice dendritic cells were incubated during maturation phase (24 h or 48 h) followed by a differentiation phase with excipient or RvE1 or anti-CMKLR1 antibodies variants (mutations on positions 1 and 2 of SEQ ID No. 8, corresponding to the VH-CDR3: 1G1 (LL), 2G1 (LI), 3G1 (IL) or 4G1 (II) or isotype controls (hIgG1 or mIgG)). Cells were then stained for FACS analysis with cell marker antibodies: A. CD80-PE; B. CD86-FITC; C. CD103-PerCPCy5.5; D. I/Ab-APC. Mean of Fluorescence was determined in each condition. E and F represent the viability of the cells measured by FACS using LIVE/DEAD® kit from Life Technologies in each condition after 24 or 48 hours of maturation respectively.
FIG. 16. Study of the myeloid cell activation markers after CMKLR1 pathway activation. Dendritic cells incubated in excipient, RvE1, 2G1 or isotype control (hIgG1) were then stained for FACS analysis with marker antibodies: A. CD80-PE. B. CD86-FITC. C. CD103-PerCPCy5.5. D. CD40-PeCy7. E. I/Ab-APC. Mean of Fluorescence was determined in each condition.
Bone marrow cells were harvested and cultured in RPMI medium supplemented with 10% FBS, glutamine and antibiotics and the dendritic cell differentiation was induced by GM-CSF at 20 ng/ml for 7 days. Then, immature dendritic cells (iDC) were collected and cultured for 24 hours with LPS (100 ng/ml) to induce the maturation from iDC to mDC. Treatments were added during differentiation and maturation at 2 μg/ml.
Dendritic cells were resuspended in PBS-FBS-EDTA and incubated with live and dead (LIVE/DEAD® Fixable Dead Cell Stains Yellow-Life Technologies) for 30 minutes on ice. Staining of CD11c-BV711, CD11b-APCCy7, I/Ab-APC, CD103-PerCPCy5.5, CCR7-V450, CD40-PeCy7, CD80-PE, CD86-FITC (all provided by BD Pharmingen) were performed.

For experiment [1], the system named is peritonitis induced by Zymosan A. Description: peritonitis model (Zymosan A). It is filed as in vivo, mice. The note with it: vs isotype control. As for the experimental part: FIG. 7. Effect of an anti-CMKLR1 antibody on a mice peritonitis model. Preventive injection of anti-CMKLR1 was performed before Zymosan A injection (1 mg per mouse in 1 mL): RvE1 (1 μg per mouse) (●), 2G1 antibody (10 μg per mouse) (□) or isotype control antibody (x). A. PMN numbered during the first 50 hours after Zymosan A injection. B. Macrophages numbered during the first 50 hours after Zymosan A injection. C. Resolution index.
Common peritonitis is induced by intraperitoneal injection of Zymosan A® (1 mg per mouse in 1 mL). Preventive injection of anti-CMKLR1 was performed 5 minutes before Zymosan A injection: RvE1 (1 μg per mouse), 2G1 antibody (10 μg per mouse). Murine peritoneal polymorphonuclear neutrophil (PMN) and macrophages were collected at 2-4-8-16-24 and 48 h after Zymosan A injection and numbered by flow cytometry analysis to determinate the resolution index (Bannenberg et al., 2005).

A further experiment has as its system colitis induced by TNBS. In words: acute inflammatory colitis model induced by TNBS. The conditions noted are these: RvE1 1 μg per mouse daily, 2G1 10 μg per mouse; FIG. 3. In kind it is in vivo, mice. As for the experimental part: FIG. 3. Effect of an anti-CMKLR1 antibody on a mice acute inflammatory colitis model induced by TNBS. Mice received 200 μL of the haptenating agent TNBS at 5% in 50% ethanol on day 0 and then were injected with isotype control hIgG1 (10 μg per mouse) (x), RvE1 (1 μg per mouse) daily (●), or 2G1 antibody (10 μg per mouse) three times (□) for 5 days, or non-treated (wild type animals) (▴). Mice were sacrificed colon length was measured in each condition.
Colitis was induced in 8-10 weeks-old-C57Bl/6 male mice by intrarectal injection of 200 μL of the haptenating agent TNBS at 5% in 50% ethanol on day 0. Treatments were injected intra-peritoneally; RvE1 (1 μg per mouse) daily for three days, or 2G1 antibody (10 μg per mouse) twice for 3 days. Colitis follow-up consisting of body weight and stool score (0: normal stool; 4: blood in stool) parameters were performed daily (data not represented). When mice are euthanized, colon length representing the pathology severity was measured.

Experiment [2] addresses T1, Biot-C7 peptide (human ChemR23 peptide, SEQ ID No. 60) (Homo sapiens, UniProt Q99788).
T1 construct: purchased synpeptide; host or cells: chemical synthesis
T1 sequence (Q99788 275-307 limits assumed): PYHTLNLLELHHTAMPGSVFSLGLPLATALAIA
In words: activity ELISA assay, binding of biotinylated C7 peptide. The conditions noted are these: compared to wild-type 2G1; FIG. 23, FIG. 33. The source says:
FIG. 23. Binding recognition of C7 peptide by humanized anti-CMKLR1 derived from 2G1. Binding of C7biot in the supernatant of CHO cells transfected with different combinations of heavy and light chains (VHWT+VLWT: combination of SEQ ID No. 37 and SEQ ID No. 49; HCLC: combination of SEQ ID No. 42 and SEQ ID No.52; HDLC: combination of SEQ ID No. 43 and SEQ ID No.52; HCLD: combination of SEQ ID No. 42 and SEQ ID No.53; HDLD: combination of SEQ ID No. 43 and SEQ ID No.53).
FIG. 24. ED50 of anti-CMKLR1 derived from 2G1 antibody. 2G1 wt: HALA: combination of SEQ ID No. 41 and SEQ ID No. 50; combination of SEQ ID No. 37 and SEQ ID No. 49; HCLC: combination of SEQ ID No. 42 and SEQ ID No.52; HDLC: combination of SEQ ID No. 43 and SEQ ID No.52; HCLD: combination of SEQ ID No. 42 and SEQ ID No.53; HDLD: combination of SEQ ID No. 43 and SEQ ID No.53.
FIG. 33—Binding of purified antibodies on human ChemR23 peptide by ELISA assay (A), with ED50 concentration (ng/ml) (B). For activity ELISA assay, donkey anti-human IgG, Fc specific (Jackson Immunoresearch; USA; reference 709-005-098) was immobilized on plastic at 1.3 μg/ml in borate buffer (pH9) and purified antibody was added to measure binding in BSA1% buffer, compared to wild-type 2G1.
For activity ELISA assay, donkey anti-human IgG, Fc specific (Jackson Immunoresearch; USA; reference 709-005-098) was immobilized on plastic at 1.3 μg/ml in borate buffer (pH9) and purified antibody were added to measure binding in BSA1% buffer, compared to wild-type 2G1.
For activity ELISA assay, donkey anti-human IgG, Fc specific (Jackson Immunoresearch; USA; reference 709-005-098) was immobilized on plastic at 1.3 μg/ml in borate buffer (pH9) and purified antibody was added to measure binding in BSA1% buffer, compared to wild-type 2G1.

Experiment [3] relates to PMN from healthy volunteers. In words: Percentage of dead PMN (mortality of neutrophils) on coated antibodies. It is filed as cell-based, human. As for the experimental part: […] Mortality of PMN was analyzed by incubating PMN with specific markers of the mortality and viability and then counted by picture analysis.
FIG. 36—Increase of dead PMN neutrophils in vitro with anti-ChemR23 antibodies coated. PMN from healthy volunteers were incubated in culture medium with coated HEF-LDT52S, HEF-LEF and HDLD antibody variants at 10 μg/mL for 24 h and stained either with a dead/viability kit (LIVE/DEAD (Invitrogen)). The percentages of positive cells were obtained by analyzing the pictures with Fiji software. Isotype control was added as control.
(§1) PMN from healthy volunteers were incubated in culture medium with coated Ab at 10 μg/mL for 24 h or 5 h and stained either with a dead/viability kit (LIVE/DEAD (Invitrogen)) or a specific marker of reactive oxygen species (ROS) respectively. The percentages of positive cells were obtained by analyzing the pictures with ImageJ software.
PMN from healthy volunteers were incubated in culture medium with coated HEF-LDT52S, HEF-LEF and HDLD antibody variants at 10 μg/mL for 24 h and stained either with a dead/viability kit (LIVE/DEAD (Invitrogen)). The percentages of positive cells were obtained by analyzing the pictures with Fiji software. Isotype control was added as control.

In experiment [4] the test system is ROS production by PMN from healthy volunteers. In words: ROS test in PMN. It is filed as cell-based, human. The note with it: coated Ab at 10 μg/mL, after 5 h; FIG. 26C. As for the experimental part: (§2) Neutrophils were isolated from blood of healthy volunteers and cultured for 24 h (Mortality analysis), or 4 h, 6 h, 11 h (Caspase-3 assay), or 5 h (ROS assay) on coated Iso ctrl (cross), chimeric anti-ChemR23 2G1 (square) or different humanized versions of the 2G1 (diamonds). Mortality of PMN was analyzed by incubating PMN with specific markers of the mortality and viability and then counted by picture analysis.
as §1

The test system of experiment [5] is Caspase-3 in PMN from healthy volunteers. In words: Caspase-3 expression in PMN by Western Blot. The conditions noted are these: coated Ab at 10 μg/mL, FIG. 26B. It is filed as cell-based, human. As for the experimental part:
as §2
PMN from healthy volunteers were incubated in culture medium with coated Ab at 10 μg/mL for different times and collected for Caspase-3 staining analyzed by Western Blot. The intensity of Capase-3 expression was calculated on WB.

Positions count from the first letter of the chain named.

Turning to `CC[C@@H](O)/C=C/C=C\C[C@@H](O)/C=C/C=C/C=C\[C@@H](O)CCCC(=O)O` [RvE1, Resolvin E1, reference compound], in the experiment on Mice dendritic cells, the “expression of CD80, CD86, CD103, CD40 and IAb” value is “strong decrease”. In addition, the PMNs number entry in experiment [1] (first 50 hours after Zymosan A, FIG. 7A) is reported as “slightly less”. Moreover, the Macrophages number entry in experiment [1] (first 50 hours after Zymosan A, FIG. 7B) is reported as “slightly less”. Also, in experiment [1] (FIG. 7C), the resolution index result was “better resolution index”. Besides, the colon length entry in the experiment on colitis induced by TNBS is given as “the same as normal animal”.

B1: HCLC: humanized 2G1 variant: combination of SEQ ID No. 42 and SEQ ID No. 52 (antibody, V domains shown)
VH: EVQLVESGGGLVQPGGSLRLSCAASGFTFSSYGMSWVRQAPGKGLELVATINRYGGSTYYAASVKGRFTISRDNSKNTLYLQMNSLRAEDTAVYYCPKLIYYGNEGDSWGQGTLVTVSS
VL: AIQLTQSPSSLSASVGDRVTITCRASQSVSFLHWYQQKPGKAPKRWIYDATKLTSGVPSRFSGSGSGTDFTLTISSLQPEDFATYYCQQWNSKPPLTFGGGTKVEIK
Regarding B1, in experiment [2], the “binding activity to antigen-specific peptides (C7 peptide)” value (shortened to “binding activity”) is “even better than the germline antibody HALA and the wild type antibody 2G1”.

B2: HCLD: humanized 2G1 variant: combination of SEQ ID No. 42 and SEQ ID No. 53 (antibody, V domains shown)
VH: B1 VH
VL: B1 VL with N91Q
As for B2, the “binding activity” value in experiment [2] was “even better than the germline antibody HALA and the wild type antibody 2G1”.

B3: HEF-LEF: humanized 2G1 variant: HEF (SEQ ID NO: 91) with LEF (SEQ ID NO: 55) (antibody, V domains shown)
VH: B1 VH with G33A, A49S, N52S, R53G, Y54S
VL: B1 VL with W46L, T51S, T54E, N91Q
For the molecule B3, in experiment [3] (coated Ab at 10 μg/mL, 24 h, FIG. 26, FIG. 36), the “mortality of PMN (percentage of dead PMN)” value is given as “accelerate the death of PMN”.

B4: HDLC: humanized 2G1 variant: combination of SEQ ID No. 43 and SEQ ID No. 52 (antibody, V domains shown)
VH: B1 VH with G33A
VL: B1 VL
In the case of B4, the “binding activity” value in experiment [2] is “even better than the germline antibody HALA and the wild type antibody 2G1”.

B5: HALA: humanized 2G1 germline antibody: combination of SEQ ID No. 41 and SEQ ID No. 50 (antibody, V domains shown)
VH: B1 VH with A61P, A62D, K98R
VL: B1 VL with R24S, Q27S, L32M, A50T, F70Y
Take B5: in experiment [4], the “ROS production by PMN” value is on record as “increase the ROS production”. In addition, the caspase-3 cleavage entry in experiment [5] (4 h, 6 h, 11 h) was “increases caspase-3 cleavage”. In addition, the caspase-3 activity result in experiment [5] is recorded as “higher effect on caspase 3 activity as compared to the 2G1 antibody”. In experiment [3] (at 48 hours, compared with IgG1 control), the “percentage of dead cells” value is listed as “similar”.

The record behind these values is patent US12534533B2, “Anti-chemokine like receptor 1 humanized antibodies and their therapeutic applications” (OSE IMMUNOTHERAPEUTICS, priority 2019, dated 2026).
